The results in this text go back to PMC10237660.

For the assay, the target named is C-terminal polyP binding domain of the E. coli exopolyphosphatase (EcPPXc) (E. coli strain K12). The assay can be described thus: SEC; analytical SE-UPLC, BEH200 4.6 x 300 mm column (Waters), running buffer 10 mM NaH2PO4, 400 mM (NH4)2SO4, pH 6.2; retention time compared with 158 kDa and 44 kDa standards. A general note: Size exclusion chromatography separates by hydrodynamic size, large species first.

Regarding “C-terminal polyP binding domain of the E. coli exopolyphosphatase (EcPPXc) (domain or fragment)”, the stoichiometry N was determined as 2.

The stoichiometry N is the number of molecules, sites or subunits per partner or assembly.
